Assay [1] concerns the target MHC class II products (H-2d) on splenic antigen-presenting cells of BALB/c mice (mouse) (UniProt P04228). The assay can be described thus: flow cytometry, inhibition of binding of biotinylated peptide Ia (competitor) to BALB/c APC.
In assay [2] the target is MHC class II products (H-2b) on splenic antigen-presenting cells of C57BL/6 mice (mouse) (UniProt P14434). Put plainly: flow cytometry, inhibition of binding of biotinylated peptide IIIa (competitor) to C57BL/6 APC.
Assay [3] concerns the target MHC class II products (H-2b) on splenic antigen-presenting cells of C3H.SW mice (mouse) (UniProt P14434). The assay can be described thus: flow cytometry, inhibition of binding of biotinylated peptide Ia (competitor) to C3H.SW APC.
In assay [4] the target is MHC class II products (H-2d) on splenic antigen-presenting cells of BALB/c mice (mouse) (UniProt P04228). Put plainly: flow cytometry, inhibition of binding of biotinylated peptide IIIa (competitor) to BALB/c APC.
Assay [5] has as its target MHC class II products (H-2b) on splenic antigen-presenting cells of C3H.SW mice (mouse) (UniProt P14434). The assay can be described thus: flow cytometry, inhibition of binding of biotinylated peptide IIIa (competitor) to C3H.SW APC.
For assay [6], the target named is MHC class II products (H-2b) on splenic antigen-presenting cells of C57BL/6 mice (mouse) (UniProt P14434). The assay can be described thus: flow cytometry, inhibition of binding of biotinylated peptide Ia (competitor) to C57BL/6 APC.
The test system of assay [7] is peripheral blood lymphocytes (PBL). The assay can be described thus: IL-2 production by PBL of SLE patients and healthy controls. To be noted: sample at 24 hr. Format: cell-based, human. The procedure:
(§1) PBL from human SLE patients and of the appropriate control donors (2×10^5/well) were cultured in microtiter plates in enriched medium containing 10% pooled AB sera in the presence of the human or mouse monoclonal 16/6 Id antibody, in the presence of peptides of the invention or in the presence of phytohemagglutinin (PHA). The rate of proliferation was evaluated by the incorporation of ^3[H]-thymidine in the cell culture. Non-relevant peptides were used as specificity controls. Antigen and mitogen-stimulated cytokine production was quantitated in the supernatants of the above cultures using either the cytokine-dependent lines or the appropriate pairs of antibodies in ELISA assays. Inhibition of the proliferative responses was performed in vitro by adding increasing doses of the tested peptide analogs into the proliferative culture mixtures.
PBL were isolated from blood of SLE patients or healthy controls using ficol gradient, and were incubated as in Example 13. A sample of 50 μl was removed 24 hr after the assay was started, and incubated in the presence of IL-2 sensitive cells (CTLD) for 24 hr, after which ^3H-thymidine was added for 16 hr, and the plates were harvested and counted on a beta counter.

Assay [8] concerns antibodies in sera of SLE patients and healthy controls. Put plainly: Antibodies in human sera binding coated peptides or mAb 5G12 (ELISA). The conditions noted are these: 32 SLE patients in comparison to healthy controls; plates coated 10 μg/ml. The procedure:
Human SLE patients (32 patients) were bled and their sera were tested by ELISA for their ability to bind the peptides Ia, IIa and IIIa, a control peptide p195-212 (a myasthogenic peptide described in PCT publication No. WO 94/00148) or mAb 5G12.
Detection of the antibodies was conducted on plates that were coated with 10 μg/ml of peptides Ia, IIa, IIIa or p195-212 or mAb 5G12, in PBS for 2 hr, washed and blocked with 1% ovalbumin in PBS for an additional 2 hr. ELISA was continued as described after blockage in Example 2 above, using goat anti-human IgG polyclonal antibody conjugated to peroxidase.

In a further assay the test system is BALB/c and SJL mice. The assay can be described thus: Clinical manifestations of SLE in immunized mice (WBC, proteinuria, kidney analysis). Format: in vivo, mouse. The procedure: The erythrocyte sedimentation rate was determined by diluting the heparinized blood in PBS at a ratio of 1:1. The diluted blood was then passed to a microsampling pipette and the sedimentation was measured 6 hours later. White blood cell counts were determined after the hemolysis of heparinized blood. Proteinuria was measured in a semi-quantitative manner, using a Combistix kit (Ames, Stoke Poges, Slough, U.K.). Immunohistology was performed by incubation of fixed frozen cryostat sections with FITC-labeled antibodies to mouse Ig. Staining was visualized via use of a fluorescent microscope.
BALBtc and SJL mice were immunized with mAb 5G12 or with peptides Ia and IIIa, and five months later were checked by two criteria for manifestation of SLE: white blood cell count (WBC) and proteinuria.
(i) White blood cell count (WBC): The mice were bled, their blood was diluted 1:10 with 1% (vol/vol) acetic acid in order to eliminate the red blood cells, and white blood cells were counted under a normal light microscope.
Proteinuria: The urine of the mice was tested using combisticks (Combistix Kit, Ames) for the presence of protein.

For assay [9], the system named is peripheral blood lymphocytes (PBL). The assay can be described thus: Proliferation of PBL from SLE patients and healthy controls. In kind it is cell-based, human. The procedure: as §1
Peripheral blood lymphocytes (PBL) were isolated from the blood of SLE patients or healthy controls using ficol gradient. Thereafter, the PBL were incubated in the presence of different concentrations of the peptides Ia, IIa or IIIa, or the human 16/6 Id mAb for 24 hr, when a sample was taken for IL-2 measurement. The assay was continued for a total of 7 days, and ^3H-thymidine was added for the last 16 hr. Proliferation was detected by reading the amount of radioactivity incorporated into the DNA of the cells.

Assay [10] has as its target MHC class II products (H-2s) on splenic antigen-presenting cells of SJL mice (mouse). Put plainly: flow cytometry, inhibition of binding of biotinylated peptide IIIa (competitor) to SJL APC.
For assay [11] the target is unchanged. The assay can be described thus: flow cytometry, inhibition of binding of biotinylated peptide Ia (competitor) to SJL APC.

The text below walks through data of patent publication US6613536B1, “Synthetic peptides and pharmaceutical compositions comprising them for the treatment of systemic lupus erythematosus” (Yeda Research and Development Co. Ltd., priority 1995, dated 2003).

“34-5-3 (anti-I-A^b, Pharmingen) (antibody)”: the % inhibition was 0% in assay [1]; 59.3% in [2]; 60% in [3]; 0% in [4]; 84.4% in [5]; 82% in assay [6].

Consider “EINPSTGGTTYNQKFKAKAT (EINPSTGGTTYNQKFKAKAT) [peptide IIa, based on the CDR2 region of the VH chain of mAb 5G12]”, for which the “IL-2 production by PBL, actual number of responders” value in assay [7] (SLE patients) is reported as 3/32; in [7] (healthy controls), 8/25. Besides, the “IL-2 production by PBL, percentage of responders” value in assay [7] (SLE patients) amounted to 9%; in [7] (healthy controls) it was 32%. Also, the “levels of serum antibodies that bind the coated peptide or mAb” value in assay [8] was “significantly higher levels of antibodies”. Further, the “protein level in urine (in words)” value in the assay on BALB/c and SJL mice (BALB/c mice) was “smaller increase in protein level”; with BALB/c and SJL mice (SJL mice), “High levels of protein”. The “proliferation of PBL, actual number of responders” value is recorded as 3/32 in assay [9] (SLE patients) and 7/25 in assay [9] (healthy controls). Moreover, the “proliferation of PBL, percentage of responders” value in [9] (SLE patients) stood at 9%; in assay [9] (healthy controls) it was 28%.

Turning to “MKD6 (anti-I-A^d, Beckton-Dickinson) (antibody)”, the % inhibition in assay [1] was 76.7%; in assay [10] it was 0%; in [2] it was 0%; in assay [3], 0%; in [11], 0%; in assay [4], 100%. Further, the % inhibition worked out at 25% in assay [5] and 0% in [6].

With “10.3.6.2 (anti-I-A^s (Zamvil et al., 1988)) (antibody)”, the figures for the % inhibition in assay [10] and in [11] were 92.8% and 100%, respectively.
